Laboratory results reported in patent publication US20050064507.

Key:
[1] = biological target: T1, CACNA1C peptide RGFLRSASLGRRASFHLE (SEQ ID NO:96) (not fully specified)
T1 chain: RGFLRSASLGRRASFHLE

[2] = biological target: T2, MARCKS peptide KKRFSFKKSFKLSGFSFKKN (SEQ ID NO:123) (not fully specified)
T2 chain: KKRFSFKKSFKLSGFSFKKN

[3] = biological target: T3, Urotensin-2 receptor peptide LYARLARAYRRSQRASFKRA (SEQ ID NO:159) (not fully specified)
T3 chain: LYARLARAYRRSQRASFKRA

[4] = biological target: T4, ARHGAP4 peptide AGPLRKSSLKKGGRL (SEQ ID NO:98) (not fully specified)
T4 chain: AGPLRKSSLKKGGRL

[5] = biological target: T5, dag kinase iota peptide PQNSLKASNRKKKRTSFKRK (SEQ ID NO:151) (not fully specified)
T5 chain: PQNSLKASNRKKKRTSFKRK

[6] = biological target: T6, EBNA1BP2 peptide KRPGKKGSNKRPGKR (SEQ ID NO:112) (not fully specified)
T6 chain: KRPGKKGSNKRPGKR

[7] = biological target: T7, NCF1 peptide GAPPRRSSIRNAH (SEQ ID NO:101) (not fully specified)
T7 chain: GAPPRRSSIRNAH

[8] = biological target: T8, MARCKS peptide PSPSNETPKKKKKRFSFKKS (SEQ ID NO:157) (not fully specified)
T8 chain: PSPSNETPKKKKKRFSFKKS

[9] = biological target: T9, Myt1 kinase peptide PPRTPGWHQLQPRRVSFRGE (SEQ ID NO:163) (not fully specified)
T9 chain: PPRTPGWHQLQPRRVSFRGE

[10] = biological target: T10, nuclear RNA export factor 3 peptide VRYTPYTISPYNRKGSFRKQ (SEQ ID NO:143) (not fully specified)
T10 chain: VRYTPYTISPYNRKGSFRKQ

[11] = biological target: T11, beta adducin peptide PSKSPSKKKKKFRTPSFLKK (SEQ ID NO:137) (not fully specified)
T11 chain: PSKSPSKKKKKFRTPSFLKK

[12] = biological target: T12, NMDAR1 peptide RAITSTLASSFKRRR (SEQ ID NO:122) (not fully specified)
T12 chain: RAITSTLASSFKRRR

[13] = biological target: T13, CREB1 peptide EILSRRPSYRKILND (SEQ ID NO:106) (not fully specified)
T13 chain: EILSRRPSYRKILND

[14] = biological target: T14, MGC2941 peptide RPTPGDGEKRSRIKKSKKRK (SEQ ID NO:139) (not fully specified)
T14 chain: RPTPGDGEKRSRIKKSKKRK

[15] = biological target: T15, calcium channel, voltage-dependent, L type, alpha peptide RDIRQSPKRGFLRSASLGRR (SEQ ID NO:147) (not fully specified)
T15 chain: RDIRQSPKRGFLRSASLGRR

[16] = biological target: T16, plectin peptide PLKEKKRERKTSSKSSVRKR (SEQ ID NO:125) (not fully specified)
T16 chain: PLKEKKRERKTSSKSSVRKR

[17] = biological target: T17, cyclophilin G peptide TEEKSKKRKKKHRKNSRKHK (SEQ ID NO:165) (not fully specified)
T17 chain: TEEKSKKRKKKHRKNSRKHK

[18] = biological target: T18, FLJ20574 peptide GENVLKKSMKSRVKG (SEQ ID NO:113) (not fully specified)
T18 chain: GENVLKKSMKSRVKG

[19] = biological target: T19, PSCD2 peptide AARKKRISVKKKQEQ (SEQ ID NO:93) (not fully specified)
T19 chain: AARKKRISVKKKQEQ

[20] = biological target: T20, MLK3 peptide QQVDRERPHVRRRRGTFKRS (SEQ ID NO:128) (not fully specified)
T20 chain: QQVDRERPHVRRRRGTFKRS

[21] = biological target: T21, ERN1 peptide KLAVGRHSFSRRSGV (SEQ ID NO:94) (not fully specified)
T21 chain: KLAVGRHSFSRRSGV

[22] = biological target: T22, MCM2 peptide VQRHRSMRKTFARYLSFRRD (SEQ ID NO:129) (not fully specified)
T22 chain: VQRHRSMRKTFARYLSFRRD

[23] = biological target: T23, phospholemman peptide EEGTFRSSIRRLSTRRR (SEQ ID NO:116) (not fully specified)
T23 chain: EEGTFRSSIRRLSTRRR

[24] = biological target: T24, PKD1 peptide RVVQSVKHTKRKSSTVMK (SEQ ID NO:149) (not fully specified)
T24 chain: RVVQSVKHTKRKSSTVMK

[25] = biological target: T25, dag kinase zeta peptide KKKKRASFKRKSSKKG (SEQ ID NO:114) (not fully specified)
T25 chain: KKKKRASFKRKSSKKG

[26] = biological target: T26, ARHGAP6 peptide SAQITIPKDGQKRKKSLRKK (SEQ ID NO:156) (not fully specified)
T26 chain: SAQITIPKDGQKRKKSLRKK

[27] = biological target: T27, CHRM1 peptide RKIPKRPGSVHRTPSRQ (SEQ ID NO:83) (not fully specified)
T27 chain: RKIPKRPGSVHRTPSRQ

[28] = biological target: T28, PRKCA peptide RFARKGSLRQKNV (SEQ ID NO:85) (not fully specified)
T28 chain: RFARKGSLRQKNV

[29] = biological target: T29, ribosomal protein S6 peptide AKRRRLSSLRASTSK (SEQ ID NO:120) (not fully specified)
T29 chain: AKRRRLSSLRASTSK

[30] = biological target: T30, p164-RhoGEF peptide PRLIRRGSKKRPAR (SEQ ID NO:82) (not fully specified)
T30 chain: PRLIRRGSKKRPAR

B1: PKC-epsilon (protein)
chain: MVVFNGLLKIKICEAVSLKPTAWSLRHAVGPRPQTFLLDPYIALNVDDSRIGQTATKQKTNSPAWHDEFVTDVCNGRKIELAVFHDAPIGYDDFVANCTIQFEELLQNGSRHFEDWIDLEPEGRVYVIIDLSGSSGEAPKDNEERVFRERMRPRKRQGAVRRRVHQVNGHKFMATYLRQPTYCSHCRDFIWGVIGKQGYQCQVCTCVVHKRCHELIITKCAGLKKQETPDQVGSQRFSVNMPHKFGIHNYKVPTFCDHCGSLLWGLLRQGLQCKVCKMNVHRRCETNVAPNCGVDARGIAKVLADLGVTPDKITNSGQRRKKLIAGAESPQPASGSSPSEEDRSKSAPTSPCDQEIKELENNIRKALSFDNRGEEHRAASSPDGQLMSPGENGEVRQGQAKRLGLDEFNFIKVLGKGSFGKVMLAELKGKDEVYAVKVLKKDVILQDDDVDCTMTEKRILALARKHPYLTQLYCCFQTKDRLFFVMEYVNGGDLMFQIQRSRKFDEPRSRFYAAEVTSALMFLHQHGVIYRDLKLDNILLDAEGHCKLADFGMCKEGILNGVTTTTFCGTPDYIAPEILQELEYGPSVDWWALGVLMYEMMAGQPPFEADNEDDLFESILHDDVLYPVWLSKEAVSILKAFMTKNPHKRLGCVASQNGEDAIKQHPFFKEIDWVLLEQKKIKPPFKPRIKTKRDVNNFDQDFTREEPVLTLVDEAIVKQINQEEFKGFSYFGEDLMP
In the case of B1, the in vitro phosphorylation (% of best substrate) [1] is reported as 41, the in vitro phosphorylation, 1 uM peptide (% of best substrate) [2] is reported as 67 and the in vitro phosphorylation, 1 uM peptide (% of best substrate) [3] is reported as 25. It also gave an in vitro phosphorylation (% of best substrate) [4] of 34, an in vitro phosphorylation, 1 uM peptide (% of best substrate) [5] of 24 and an in vitro phosphorylation (% of best substrate) [6] of 11. It also gave an in vitro phosphorylation (% of best substrate) [7] of 19, an in vitro phosphorylation, 1 uM peptide (% of best substrate) [8] of 12 and an in vitro phosphorylation, 1 uM peptide (% of best substrate) [9] of 14. For the same protein, the in vitro phosphorylation, 1 uM peptide (% of best substrate) [10] was 21, the in vitro phosphorylation, 1 uM peptide (% of best substrate) [11] was 32 and the in vitro phosphorylation, 1 uM peptide (% of best substrate) [12] was 72. For the same protein, the in vitro phosphorylation (% of best substrate) [13] was 31, the in vitro phosphorylation, 1 uM peptide (% of best substrate) [14] was 24 and the in vitro phosphorylation, 1 uM peptide (% of best substrate) [15] was 26. It also gave an in vitro phosphorylation, 1 uM peptide (% of best substrate) [16] of 48, an in vitro phosphorylation, 1 uM peptide (% of best substrate) [17] of 12 and an in vitro phosphorylation (% of best substrate) [18] of 10. For the same protein, the in vitro phosphorylation (% of best substrate) [19] was 40, the in vitro phosphorylation, 1 uM peptide (% of best substrate) [20] was 32 and the in vitro phosphorylation (% of best substrate) [21] was 13. The in vitro phosphorylation, 1 uM peptide (% of best substrate) [22] was 65, the in vitro phosphorylation, 1 uM peptide (% of best substrate) [23] was 92 and the in vitro phosphorylation, 1 uM peptide (% of best substrate) [24] was 27. It also gave an in vitro phosphorylation, 1 uM peptide (% of best substrate) [25] of 100, an in vitro phosphorylation, 1 uM peptide (% of best substrate) [26] of 18 and an in vitro phosphorylation (% of best substrate) [27] of 47. For the same protein, the in vitro phosphorylation (% of best substrate) [28] was 86, the in vitro phosphorylation, 1 uM peptide (% of best substrate) [29] was 56 and the in vitro phosphorylation (% of best substrate) [30] was 72.
